{"source": "patent US11324803B2", "about": "“Methods and compositions for treatment of Gaucher Disease via modulation of C5a receptor” (Children's Hospital Medical Center, priority 2015, dated 2022)", "molecules": {"B1": {"name": "Thr Leu Gln Lys Lys Ile Glu Glu Ile Ala Ala Lys Tyr Lys His Ser Val Val Lys Lys Cys Cys Tyr Asp Gly Ala Ala Val Asn Asn Asp Glu Thr Cys Glu Gln Arg Ala Ala Arg Ile Ser Leu Gly Pro Arg Cys Ile Lys Ala … (protein)", "chain": "TLQKKIEEIAAKYKHSVVKKCCYDGAAVNNDETCEQRAARISLGPRCIKAFTECCVVASQLRANISFKRS", "modifications": "mutant C5a-(1-66, Cys27A1a) -A8B-Del. 71-73 of human C5a", "notes": "positions 27 and 68-71 of human C5a mutated and positions 72-74 deleted"}}, "key": {"C5aR1 [1]": {"target": "T1, C5aR1 (Mus musculus, UniProt P30993)", "T1 construct": "endogenous in cells; host or cells: WT and 9V/null mice (mixed FVB/C57BL 6J/129SvEvBrd background), in vivo", "T1 sequence (P30993 1-351)": "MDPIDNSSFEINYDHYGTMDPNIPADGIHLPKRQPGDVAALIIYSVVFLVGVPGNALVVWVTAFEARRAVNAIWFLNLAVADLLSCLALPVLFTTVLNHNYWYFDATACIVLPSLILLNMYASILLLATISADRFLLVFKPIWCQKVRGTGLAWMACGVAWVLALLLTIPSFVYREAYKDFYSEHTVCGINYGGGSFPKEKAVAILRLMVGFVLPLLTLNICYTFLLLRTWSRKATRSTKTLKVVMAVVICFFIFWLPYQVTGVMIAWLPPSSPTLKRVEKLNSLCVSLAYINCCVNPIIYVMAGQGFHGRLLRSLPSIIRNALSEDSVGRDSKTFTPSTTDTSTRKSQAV", "assay": "C5aR antagonist A8^Δ71-73 (C5aRA) i.p. treatment of Gaucher disease-prone 9V/null mice", "type": "in vivo", "conditions": "for pro-inflammatory cytokine (and chemokine) production: DCs and T cells of C5aRA-treated 9V/null mice", "text": "Sera from human patients with Gaucher disease (n=10) and healthy volunteers (n=15) were from the freezer and de-identified. Human patients with Gaucher disease were diagnosed at Cincinnati Children's Hospital Medical Center (CCHMC). […] The study was approved by the ethics committee at CCHMC. In vivo C5aR1 deficiency or blockade in 9V/null mice and in a CBE-induced mouse model of Gaucher disease. To assess the impact of genetic or pharmacological targeting of C5aR1 on the inflammatory response in Gaucher disease, WT (n=10) and C5aR1^−/− mice (n=10) were treated with conduritol B epoxide (CBE), which is an irreversible inhibitor of acid β-glucosidase^24. More specifically, both mouse strains were injected intraperitoneally (i.p.) with 100 mg CBE/kg body weight or vehicle (PBS)/day for up to 60 days, which was the termination point of these experiments. After 60 days of the indicated treatment with CBE, immune cells (MΦs, DCs, and T cells) were purified from lung of these mouse strains and used for measurement of GC, costimulatory molecules, and several of the pro-inflammatory cytokines. In additional experiments, WT (n=15) or 9V/null mice (n=15) were injected with 100 μl of the C5aR antagonist A8^Δ71-73 (i.p. 0.5 mg/kg) or vehicle (100 μl, PBS) on five consecutive days. Five days after the final C5aRA treatment, liver, spleen and lung were separated and measured for GC accumulation. Further, DCs and CD4^+ T cells were purified from the lung of the indicated mouse strains and measured for costimulatory molecule expression and the production of pro-inflammatory cytokines. Preparation of tissue cells. Liver, spleen, lung and BM were harvested aseptically. Single cell suspensions from liver and lung were obtained from minced pieces that were treated with Liberase Cl (0.5 mg/mL) and DNase (0.5 mg/mL) in RPMI (45 min, 37° C.). Single cell suspensions from spleen were obtained by grinding and then filtration through a 70-micron cell strainer. […] For BM cells, femurs, tibias and humeri were flushed with sterile phosphate buffered saline (PBS), followed by RBC lysis (155 mM NH4Cl, 10 mM NaHCO3, 0.1 mM EDTA), passage through a strainer. Cells were then pelleted by centrifugation at 350×g. Viable cells were counted using a Neubauer chamber and trypan blue exclusion. DCs, MΦs, and CD4^+ T lymphocytes were purified from single cell suspensions of liver, spleen, and lung using CD11c, CD11b, and CD4 (L3T4) microbeads according to the manufacturer's protocol. The purity of the cells was ˜90%-95%.\nTissue cells were suspended in PBS containing 1% BSA. After incubation (15 min, 4° C.) with Fc©R-blocking antibody 2.4G2, cells were stained (45 min, 4° C.) with the following antibodies to identify APCs and T cell: CD4 for T cells; CD11b and F4/80 for Ms; and CD11b and CD11c for DCs. Cells were also stained with the respective isotype antibodies as controls. MΦs were first identified by their typical FSC/SSC pattern, F4/80 and CD11 expression. DCs were identified as CD11c^+CD11b^+ cells. Further, CD40, CD80 CD86 and C5aR1 expression was determined in tissue DCs. T cells were first characterized by their FSC/SSC pattern and CD3 staining. CD3^+T cells were further stained for CD4, CD40L and CD69 expression. A total of […] were acquired for each cell type isolated from the different organs. Specific surface expression was assessed relative to the expression of the corresponding isotype control antibody. Fortessa-I, Fortessa-II, and LSRII flow cytometers were used to characterize the cells. FCS express (version 4; DeNovo Software) was used to analyze the data.\nLipids were extracted from tissues (5 mg; liver, spleen, and lung), purified immune cells, (e.g., MΦ, DCs, and CD4^+T) and GC-specific IgG2a by chloroform and methanol^2, 25, 26. […]"}, "C5aR1 [2]": {"target": "T2, C5aR1 (Homo sapiens, UniProt P21730)", "T2 sequence (P21730 1-350)": "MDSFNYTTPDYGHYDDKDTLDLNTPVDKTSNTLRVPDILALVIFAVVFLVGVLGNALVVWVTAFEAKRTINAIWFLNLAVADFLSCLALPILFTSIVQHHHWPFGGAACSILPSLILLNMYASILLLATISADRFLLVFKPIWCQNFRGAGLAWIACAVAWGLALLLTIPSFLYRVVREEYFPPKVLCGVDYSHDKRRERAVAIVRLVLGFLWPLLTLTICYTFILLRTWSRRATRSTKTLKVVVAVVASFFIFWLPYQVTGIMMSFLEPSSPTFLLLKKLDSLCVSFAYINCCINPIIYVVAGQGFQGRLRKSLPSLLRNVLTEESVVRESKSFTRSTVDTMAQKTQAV", "conditions": "cited from earlier work"}, "mouse C5aR1": {"target": "T3, mouse C5aR1 (Mus musculus, UniProt P30993)", "T3 sequence (P30993 1-351)": "T1 sequence (P30993 1-351)", "conditions": "cited from earlier work"}, "human C5aR2 (C5L2)": {"target": "human C5aR2 (C5L2) (Homo sapiens, UniProt Q9P296)", "sequence (Q9P296 whole entry)": "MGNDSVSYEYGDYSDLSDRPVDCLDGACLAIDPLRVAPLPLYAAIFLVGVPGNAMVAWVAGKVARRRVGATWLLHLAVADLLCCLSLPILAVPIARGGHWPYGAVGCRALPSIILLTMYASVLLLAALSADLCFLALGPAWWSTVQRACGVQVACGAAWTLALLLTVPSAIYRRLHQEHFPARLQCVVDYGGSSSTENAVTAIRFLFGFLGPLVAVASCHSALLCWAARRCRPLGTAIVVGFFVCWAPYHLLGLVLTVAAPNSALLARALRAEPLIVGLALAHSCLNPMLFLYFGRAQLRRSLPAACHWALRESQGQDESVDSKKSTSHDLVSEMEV", "conditions": "cited from earlier work"}, "[3]": {"conditions": "C5aRA-treated 9V/null mice, i.p. 0.5 mg/kg on five consecutive days, CD68+ immunohistochemistry"}, "[4]": {"conditions": "C5aRA-treated vs vehicle-injected 9V/null mice, ESI-LC-MS/MS"}, "[5]": {"conditions": "DC/CD4+ T cell co-culture 48 h from C5aRA-treated mice, ELISA"}, "[6]": {"conditions": "in response to C5aRA treatment, flow cytometry"}}}
{"molecule": "B1", "values": [{"measurement": "co-stimulatory molecule expression in DCs and CD4+ T cells", "setting": "C5aR1 [1]; C5aRA-treated 9V/null mice", "value": "marked reduction"}, {"measurement": "MΦ infiltration of the liver", "setting": "C5aR1 [1]; [3]", "value": "substantially reduced"}, {"measurement": "MΦ infiltration of the lung", "setting": "C5aR1 [1]; [3]", "value": "substantially reduced"}, {"measurement": "MΦ infiltration of the spleen", "setting": "C5aR1 [1]; [3]", "value": "substantially reduced"}, {"measurement": "co-stimulatory molecule expression in DCs and CD4+ T cells", "setting": "C5aR1 [1]; C5aRA-treated 9V/null mice, listed as C5aR antagonist A8^Δ71-73", "value": "decreased levels"}, {"measurement": "GCs", "setting": "C5aR1 [1]; C5aRA-treated 9V/null mice, liver and spleen (FIG. 12)", "value": "marked reduction"}, {"measurement": "GC storage in liver", "setting": "C5aR1 [1]; [4]", "value": "significantly decreased"}, {"measurement": "GC storage in lung", "setting": "C5aR1 [1]; [4]", "value": "significantly decreased"}, {"measurement": "GC storage in spleen", "setting": "C5aR1 [1]; [4]", "value": "significantly decreased"}, {"measurement": "IFN-γ production", "setting": "C5aR1 [1]; [5]", "value": "markedly decreased"}, {"measurement": "IL-1 production", "setting": "C5aR1 [1]; [5]", "value": "markedly decreased"}, {"measurement": "IL-6 production", "setting": "C5aR1 [1]; [5]", "value": "markedly decreased"}, {"measurement": "IL-17 production", "setting": "C5aR1 [1]; [5]", "value": "markedly decreased"}, {"measurement": "TNF-α production", "setting": "C5aR1 [1]; [5]", "value": "markedly decreased"}, {"measurement": "pro-inflammatory cytokine (and chemokine) production", "setting": "C5aR1 [1]", "value": "marked reduction"}, {"measurement": "pro-inflammatory cytokine (and chemokine) production", "setting": "C5aR1 [1]; listed as C5aR antagonist A8^Δ71-73", "value": "less"}, {"measurement": "GC accumulation in MΦs", "setting": "C5aR1 [1]; MΦs of treated 9V/null mice", "value": "marked reduction"}, {"measurement": "CD40L expression in CD4+ T cells", "setting": "C5aR1 [1]; [6]", "value": "significantly reduced"}, {"measurement": "CD40 expression in pulmonary DCs", "setting": "C5aR1 [1]; [6]", "value": "significantly reduced"}, {"measurement": "CD69 expression in CD4+ T cells", "setting": "C5aR1 [1]; [6]", "value": "significantly reduced"}, {"measurement": "CD80 expression in pulmonary DCs", "setting": "C5aR1 [1]; [6]", "value": "significantly reduced"}, {"measurement": "CD86 expression in pulmonary DCs", "setting": "C5aR1 [1]; [6]", "value": "significantly reduced"}, {"measurement": "MΦs, DC and T cells mediated immune inflammation", "setting": "C5aR1 [1]; mouse model of Gaucher disease, i.p.", "value": "significantly reduces"}, {"measurement": "loss of CD41+ platelets", "setting": "C5aR1 [1]; treated 9V/null mice", "value": "decreased loss"}, {"measurement": "loss of Ter119+ RBCs", "setting": "C5aR1 [1]; treated 9V/null mice", "value": "decreased loss"}, {"measurement": "affinity to bind human C5aR1", "setting": "C5aR1 [2]", "value": "high affinity"}, {"measurement": "affinity to bind mouse C5aR1", "setting": "mouse C5aR1", "value": "high affinity"}, {"measurement": "affinity to bind human C5aR2 (C5L2)", "setting": "human C5aR2 (C5L2)", "value": "high affinity"}]}
